Patent US20150125857A1

Key:
[1] = target: Frizzled (FZD) on the cell surface of pancreatic cancer cell lines; experiment: flow cytometry, YAPC cells, pGL2 siRNA
[2] = target: Frizzled (FZD) on the cell surface of pancreatic cancer cell lines; experiment: flow cytometry, PK1 cells, RNF43 siRNA
[3] = target: Frizzled (FZD) on the cell surface of pancreatic cancer cell lines; experiment: flow cytometry, YAPC cells stably expressing RNF43 F69C
[4] = target: Frizzled (FZD) on the cell surface of pancreatic cancer cell lines; experiment: flow cytometry, HPAFII cells, pGL2 siRNA
[5] = target: Frizzled (FZD) on the cell surface of pancreatic cancer cell lines; experiment: flow cytometry, YAPC cells transfected with beta-catenin siRNA#1
[6] = target: Frizzled (FZD) on the cell surface of pancreatic cancer cell lines; experiment: flow cytometry, PK1 cells, pGL2 siRNA
[7] = target: Frizzled (FZD) on the cell surface of pancreatic cancer cell lines; experiment: flow cytometry, YAPC cells treated with 3 uM IWP-2
[8] = target: Frizzled (FZD) on the cell surface of pancreatic cancer cell lines; experiment: flow cytometry, PaTu-8988S cells, pGL2 siRNA
[9] = target: Frizzled (FZD) on the cell surface of pancreatic cancer cell lines; experiment: flow cytometry, YAPC cells treated with 1 uM LGK974
[10] = target: Frizzled (FZD) on the cell surface of pancreatic cancer cell lines; experiment: flow cytometry, YAPC cells stably expressing wild-type RNF43
[11] = target: Frizzled (FZD) on the cell surface of pancreatic cancer cell lines; experiment: flow cytometry, Capan-2 cells, RNF43 siRNA
[12] = target: Frizzled (FZD) on the cell surface of pancreatic cancer cell lines; experiment: flow cytometry, YAPC cells stably expressing empty vector (EV)
[13] = target: Frizzled (FZD) on the cell surface of pancreatic cancer cell lines; experiment: flow cytometry, YAPC cells transfected with pGL2 siRNA (control)
[14] = target: Frizzled (FZD) on the cell surface of pancreatic cancer cell lines; experiment: flow cytometry, YAPC cells treated with DMSO
[15] = target: Frizzled (FZD) on the cell surface of pancreatic cancer cell lines; experiment: flow cytometry, Capan-2 cells, pGL2 siRNA
[16] = target: Frizzled (FZD) on the cell surface of pancreatic cancer cell lines; experiment: flow cytometry, HPAFII cells, RNF43 siRNA
[17] = target: Frizzled (FZD) on the cell surface of pancreatic cancer cell lines; experiment: flow cytometry, YAPC cells transfected with beta-catenin siRNA#2
[18] = target: Frizzled (FZD) on the cell surface of pancreatic cancer cell lines; experiment: flow cytometry, PaTu-8988S cells, RNF43 siRNA
[19] = target: Frizzled (FZD) on the cell surface of pancreatic cancer cell lines; experiment: flow cytometry, YAPC cells transfected with RNF43 siRNA#1, 18R5 + APC anti-human IgG
[20] = target: Frizzled (FZD) on the cell surface of pancreatic cancer cell lines; experiment: flow cytometry, YAPC cells, RNF43 siRNA
[21] = target: Frizzled (FZD) on the cell surface of pancreatic cancer cell lines; experiment: flow cytometry, YAPC cells transfected with pGL2 siRNA (control), 18R5 + APC anti-human IgG
[22] = target: Frizzled (FZD) on the cell surface of pancreatic cancer cell lines; experiment: flow cytometry, YAPC cells transfected with RNF43 siRNA#2, 18R5 + APC anti-human IgG
[23] = target: Frizzled (FZD) on the cell surface of pancreatic cancer cell lines; experiment: flow cytometry, YAPC cells stably expressing RNF43 deltaRING

- Mean FZD intensity in FACS [1]: 353
- Mean FZD intensity in FACS [2]: 923
- membrane Frizzled intensity in flow cytometry (RNF43 re-expression) [3]: 1500
- Mean FZD intensity in FACS [4]: 375
- Median FZD intensity in FACS [5]: 530
- Mean FZD intensity in FACS [6]: 473
- Median FZD intensity in FACS [7]: 1750
- Mean FZD intensity in FACS [8]: 293
- Median FZD intensity in FACS [9]: 1370
- membrane Frizzled intensity in flow cytometry (RNF43 re-expression) [10]: 686
- Mean FZD intensity in FACS [11]: 2640
- membrane Frizzled intensity in flow cytometry (RNF43 re-expression) [12]: 1040
- Median FZD intensity in FACS [13]: 137
- Median FZD intensity in FACS [14]: 721
- Mean FZD intensity in FACS [15]: 2440
- Mean FZD intensity in FACS [16]: 402
- Median FZD intensity in FACS [17]: 561
- Mean FZD intensity in FACS [18]: 245
- Median FZD intensity in FACS [19]: 1500
- Mean FZD intensity in FACS [20]: 1220
- Median FZD intensity in FACS [21]: 237
- Median FZD intensity in FACS [22]: 1750
- membrane Frizzled intensity in flow cytometry (RNF43 re-expression) [23]: 2000
B1: pan-Frizzled antibody 18R5 (antibody, INN chains, looked up, V domains shown)
VH: EVQLVESGGGLVQPGGSLRLSCAASGFTFSHYTLSWVRQAPGKGLEWVSVISGDGSYTYYADSVKGRFTISSDNSKNTLYLQMNSLRAEDTAVYYCARNFIKYVFANWGQGTLVTVSS
VL: DIELTQPPSVSVAPGQTARISCSGDNIGSFYVHWYQQKPGQAPVLVIYDKSNRPSGIPERFSGSNSGNTATLTISGTQAEDEADYYCQSYANTLSLVFGGGTKLTVL
